# Reference: patent US20110262347A1 (SALK INSTITUTE FOR BIOLOGICAL STUDIES, published 2011)
# No end group written: not given here. *: point of attachment. Biotin = O=C1N[C@H]2[C@H](CS[C@H]2CCCCC(=O)*)N1
# T1: p32 protein from mouse liver mitochondria extracts (mouse, UniProt O35658 71-278)
# T1 construct: Endogenous protein pulled down from detergent lysate of Balb/c mouse liver mitochondria; also called C1qBP; specific band below 36-kDa
# T1 sequence (looked up): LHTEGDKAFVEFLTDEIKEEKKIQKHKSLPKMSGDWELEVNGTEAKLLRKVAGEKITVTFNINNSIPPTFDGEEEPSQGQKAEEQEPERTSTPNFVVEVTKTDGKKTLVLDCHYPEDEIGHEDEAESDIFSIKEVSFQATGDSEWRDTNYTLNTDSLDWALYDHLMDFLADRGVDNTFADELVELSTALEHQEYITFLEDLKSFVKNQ
# T2: purified p32 protein
# T2 chain: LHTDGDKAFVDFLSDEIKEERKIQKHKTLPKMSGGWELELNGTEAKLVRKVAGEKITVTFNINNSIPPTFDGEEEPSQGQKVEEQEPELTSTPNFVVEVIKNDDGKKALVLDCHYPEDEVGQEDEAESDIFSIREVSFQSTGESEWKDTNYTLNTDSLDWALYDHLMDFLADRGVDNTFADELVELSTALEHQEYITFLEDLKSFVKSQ
# How the values were obtained:
# [1] = target: T1, p32 protein from mouse liver …; experiment: pull-down from mitochondria extracts, mass spectrometry
# Procedure: Affinity chromatography. […] Gel bands excised from silver-stained gels were analyzed by MALDI-TOF mass spectrometry at the Burnham Institute for Medical Research Proteomics Resource.
# purified p32 protein [2] = target: T2, purified p32 protein; experiment: comparison of the filing's CGKRK-p32 affinity with a literature value for LyP-1
# purified p32 protein [3] = target: T2, purified p32 protein; experiment: saturation binding, ELISA-type: biotin-CGKRK on immobilized purified p32, streptavidin-HRP (FIG. 19)
Binder,binding result [1],fold affinity relative to LyP-1 (purified p32 protein [2]) [fold],Kd (purified p32 protein [3]) [µg/mL]
CGKRK (Synthetic pentapeptide; also called Cys-Gly-Lys-Arg-Lys; non-labeled CGKRK) [CGKRK peptide],binds,–,–
"Biotin-CGKRK (Labeled form used in the ELISA-type assays on p32-coated wells, detected with streptavidin-HRP; also called biotin-CGKRK; biotin CGKRK) [biotin-labeled CGKRK peptide]",–,15,0.2
